From the supplement of paper PMC12764529
± gives the half width of the 95% confidence interval.

Assays:
[1] = folding stability dG unfold from chymotrypsin proteolysis; higher = more stable
Method: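 Folding stability of de novo designed mini-proteins (<80 aa, no Cys; designed by TrROS, TrMRF, ProteinMPNN and the joint model) was measured by cDNA display proteolysis with trypsin and chymotrypsin. Each protease was used at 11 concentrations in a threefold dilution series plus a no-protease condition. K50 was inferred by Bayesian fitting of sequencing counts, and dG unfold was derived against a sequence-predicted unfolded-state K50 (Tsuboyama et al. method). Sequences shown include variable-length N-terminal GS-type padding (SAGGSAGG...) inside a display construct carrying a PA tag. Rows were kept only if the AF2 dimer inter-PAE was >15, to exclude likely homo-oligomers.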

[2] = folding stability dG unfold (combined trypsin and chymotrypsin); higher = more stable
How it was run: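 Sequencing followed digestion of designed mini-proteins with trypsin and chymotrypsin, each at 11 concentrations in threefold dilutions together with a no-protease condition. The mini-proteins were under 80 residues, had no cysteine, sat in a PA-tagged cDNA display construct, and were kept only if AlphaFold2 dimer inter-PAE was above 15. From the counts, Bayesian fitting gave K50, and unfolding free energy was derived against a sequence-predicted unfolded-state K50 and a shared folded-state K50, per protease or combined.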

With “SAGGMTVVSTETDTATGRPVRTVRLPPEASLRELAALDGWVRLVDPAPDREVELPAEDPEAVVEALLASAGG [r13_604_JUSTAS]” the “folding stability dG unfold” value [1] was 0.0196 ± 0.13 kcal/mol and the “folding stability dG unfold” value [2] was -0.504 ± 0.22 kcal/mol.
In the case of “SKTVVIAADPNNPEAIKKAIEEAPPDTTIVIVVPLENGEYPKVTITRKPPEVPPIPPELLSEEEIKELLPSA [r9_1103_TrMRF]”, the “folding stability dG unfold” value [1] is reported as 0.836 ± 0.053 kcal/mol and the “folding stability dG unfold” value [2] is reported as 0.42 ± 0.14 kcal/mol.
With “SAGGAIGPEEAERLAQEIADRLAAEFREAEPDVEVEVEAEVFPPEGVIRVRPRLPDGRLLAEVTFPVGSAGG [r13_247_TrMRF]” the “folding stability dG unfold” value [1] was 0.498 ± 0.041 kcal/mol and the “folding stability dG unfold” value [2] was 0.0873 ± 0.067 kcal/mol.
With “SAGGSAGGSENAALENPFANRPPIPPVRAVLYDPDGTPRVLEGRSLEEIRRYAEERGVVVDISSAGGSAGGS [r12_244_TrMRF]” the “folding stability dG unfold” value [1] was 0.397 ± 0.072 kcal/mol and the “folding stability dG unfold” value [2] was -0.165 ± 0.075 kcal/mol.
With “SAGGSAMKIEEEEVEVPLSDEELEALKKNPGKTVKVKVIKIEIEMPEEEKKRLAKELEEKFNIKIESAGGSA [r15_347_TrROS_Hall]” the “folding stability dG unfold” value [1] was 0.0343 ± 0.2 kcal/mol and the “folding stability dG unfold” value [2] was -0.146 ± 0.27 kcal/mol.
With “SAGGSAGGMFVPEGKTVTVKLPGNETVTVKVKAGNSRPFDSLEEIEAFAAQPGFDIEVSSSPAKSAGGSAGG [r6_433_JUSTAS]” the “folding stability dG unfold” value [1] was 0.0627 ± 0.077 kcal/mol and the “folding stability dG unfold” value [2] was -0.722 ± 0.21 kcal/mol.
In the case of “SAGGMTVTLRLTDPAGEEYTVTVTKTEGKSTATVYGPGGELVETRDFSSAEEAIAYLRAQGYTVEVIESAGG [r13_315_JUSTAS]”, the “folding stability dG unfold” value [1] is reported as 5.323 ± 0.049 kcal/mol and the “folding stability dG unfold” value [2] is reported as 5.34 ± 0.081 kcal/mol.
In the case of “SAGGSAGGSVEELLAAATSEDPAKGLARAELPSGATATVDPAAGTVTITFTSPGTPSTTTVPAPSAGGSAGG [r6_793_JUSTAS]”, the “folding stability dG unfold” value [1] is reported as 0.33 ± 0.13 kcal/mol and the “folding stability dG unfold” value [2] is reported as under -1 kcal/mol.
In the case of “SAGGSAGGSAGGMLPFEVLEVTTSTGKGKTTRTVLAREPEGPEVVLTFSPASPEEIERLLSAGGSAGGSAGG [r7_365_JUSTAS]”, the “folding stability dG unfold” value [1] is reported as 0.735 ± 0.13 kcal/mol and the “folding stability dG unfold” value [2] is reported as 0.224 ± 0.13 kcal/mol.
With “SAGGSAGGSAVEFTDPNGAEVLEIKPLPDGTTRVLTKLPGGEIPIVTYDPNTGKITTTLLPASAGGSAGGSA [r18_483_JUSTAS]” the “folding stability dG unfold” value [1] was 0.135 ± 0.11 kcal/mol and the “folding stability dG unfold” value [2] was -0.251 ± 0.2 kcal/mol.
For “SAGGSAGGSAGGLKELADKLNPGFEIRVENIEPTPGPVRINVRAPNEGVPRSIPIDPDDISAGGSAGGSAGG [r7_303_TrROS]”, the “folding stability dG unfold” value [1] was 0.993 ± 0.018 kcal/mol and the “folding stability dG unfold” value [2] was 0.479 ± 0.043 kcal/mol.
In the case of “SAGGSAGGSGHHHMTTRTSTSTDPATGSTTVTTTRTTTDGGTVTTTTTLPPPAATTTTSTTTSSAGGSAGGS [r12_1029_JUSTAS]”, the “folding stability dG unfold” value [1] is reported as 0.349 ± 0.044 kcal/mol and the “folding stability dG unfold” value [2] is reported as -0.165 ± 0.11 kcal/mol.
With “SAGGSAGGSAGSMVEVTYEPDPATGGSRIVTTTRFPDRNTVTVTELDPNAGVPLETVEVESAGGSAGGSAGG [r11_676_JUSTAS]” the “folding stability dG unfold” value [1] was -0.16 ± 0.029 kcal/mol and the “folding stability dG unfold” value [2] was -0.433 ± 0.089 kcal/mol.
In the case of “SAGGSAGGSAGGMNTPIVVETEDLPSSRPVEEVKAEAAPKGYTEVKAYPDGTVVITKVRSSAGGSAGGSAGG [r11_961_JUSTAS]”, the “folding stability dG unfold” value [1] is reported as 0.607 ± 0.047 kcal/mol and the “folding stability dG unfold” value [2] is reported as 0.164 ± 0.21 kcal/mol.
With “SAGMPADTFIELNITITVPSEEYEADPAAVKAAADAAIAAAKAAGLPVDAATFTFERVPPVDPNNPRVGSAG [r5_979_JUSTAS]” the “folding stability dG unfold” value [1] was -0.605 ± 0.2 kcal/mol and the “folding stability dG unfold” value [2] was under -1 kcal/mol.
With “SAGGSAGGSAGMVTEESLEIEPGKGLIVRTVTDRRESGIVTETEKTPVSEAEREAIRKALSAGGSAGGSAGG [r11_47_JUSTAS]” the “folding stability dG unfold” value [1] was 0.0861 ± 0.056 kcal/mol and the “folding stability dG unfold” value [2] was -0.201 ± 0.11 kcal/mol.
For “SAGGSAGGSGMSSTSTTTVEIEKDPSTGKVLKKTVTSPTTTLAPGGEWTTTVSTSTEEISPDLSAGGSAGGS [r12_629_JUSTAS]”, the “folding stability dG unfold” value [1] was -0.101 ± 0.24 kcal/mol and the “folding stability dG unfold” value [2] was -0.237 ± 0.4 kcal/mol.
For “SAGGSAGGSAGGDEILELERIPETGELVLRRITPDGEGFRIEEEVVPVGPELAEALPEGSAGGSAGGSAGGS [r10_291_TrMRF]”, the “folding stability dG unfold” value [1] was -0.279 ± 0.34 kcal/mol and the “folding stability dG unfold” value [2] was under -1 kcal/mol.
For “SAGGSAGGSAGGPNWRIITHEIPIKDGEIEINLPEGIKPQSIERNPDDGYIKVSIVIPLSAGGSAGGSAGGS [r10_906_TrROS]”, the “folding stability dG unfold” value [1] was -0.259 ± 0.14 kcal/mol and the “folding stability dG unfold” value [2] was -0.54 ± 0.15 kcal/mol.
With “SAGGSAGGMVITFTAPDGTPLGTVEVELPPNNPEAEEEARELAEALRAELEEAGRPVAATVEPASAGGSAGG [r6_884_JUSTAS]” the “folding stability dG unfold” value [1] was 0.903 ± 0.088 kcal/mol and the “folding stability dG unfold” value [2] was 0.309 ± 0.14 kcal/mol.
With “SAGGSAGGSAGAYSATPVEERRLPDGSTLVRERVTDPATGTPALREVLVTDEGVEERLLPSAGGSAGGSAGG [r11_991_JUSTAS]” the “folding stability dG unfold” value [1] was 0.415 ± 0.098 kcal/mol and the “folding stability dG unfold” value [2] was -0.458 ± 0.1 kcal/mol.
With “SAGMKVTVSPASLVFDPATGRLLRPVLVTVEDTGGGGKTPAEEQAAAAEATRRALAAELAPRTGSALDLSAG [r5_333_JUSTAS]” the “folding stability dG unfold” value [1] was 0.912 ± 0.069 kcal/mol and the “folding stability dG unfold” value [2] was 0.37 ± 0.091 kcal/mol.
For “SAGPWKIEVEQYDPNGKKEEIEDPEDLLDLAKDLPPNRMVHIKIPNGRETIMFQNPDGNVFVLKIERPESAG [r5_506_TrROS]”, the “folding stability dG unfold” value [1] was -0.0396 ± 0.33 kcal/mol and the “folding stability dG unfold” value [2] was -0.374 ± 0.34 kcal/mol.
In the case of “SAGGSAEIEPVSSEVDPNSDRTVTTNRIPGSGKTRTVTYDSSNPGVTTVTTYAPGGKPLSTTTLPTSAGGSA [r15_974_JUSTAS]”, the “folding stability dG unfold” value [1] is reported as -0.474 ± 0.28 kcal/mol and the “folding stability dG unfold” value [2] is reported as under -1 kcal/mol.
For “SGMDVFVASDPGPSYLRAEARLPGGESRVLTSGPPEEARALVERLAAEEDPAMAVRRVEEVPPGELPPELSA [r9_137_JUSTAS]”, the “folding stability dG unfold” value [1] was -0.38 ± 0.18 kcal/mol and the “folding stability dG unfold” value [2] was under -1 kcal/mol.
In the case of “SAGGSAGGSAGVRIPPGYLVRIKFPGNGEREIPIDTPEIEIPGIENVTIEVYPLKKGEPISAGGSAGGSAGG [r11_43_TrROS]”, the “folding stability dG unfold” value [1] is reported as 0.553 ± 0.19 kcal/mol and the “folding stability dG unfold” value [2] is reported as 0.167 ± 0.2 kcal/mol.
In the case of “SAGGSAGGSAGGPPTTARITLPDGRTYTVPVPVDPTTGTVYVEDIRRAVAPNYTFTIELGSAGGSAGGSAGG [r7_492_TrMRF]”, the “folding stability dG unfold” value [1] is reported as 0.981 ± 0.16 kcal/mol and the “folding stability dG unfold” value [2] is reported as 0.414 ± 0.14 kcal/mol.
In the case of “SAGGSAGGSAGMKVIVLPVPPNADRVRITYEKGPTLEIEAREDEPVVIVAPENEFTVEVDSAGGSAGGSAGG [r11_52_TrMRF]”, the “folding stability dG unfold” value [1] is reported as -0.383 ± 0.28 kcal/mol and the “folding stability dG unfold” value [2] is reported as under -1 kcal/mol.
For “SAGGSAKTIVIPAEDLTPEEIKALAEENKDKIVIYNKKTKKVVTIEVKDGKITKVEEFPVSEEELKSAGGSA [r15_751_TrROS_Hall]”, the “folding stability dG unfold” value [1] was 0.173 ± 0.3 kcal/mol and the “folding stability dG unfold” value [2] was -0.256 ± 0.67 kcal/mol.
For “SAGGSAGGSAGGKPVKVKVVIPVPDGDEVLVLEVEVEGEGGEEAVRQALEVAAELLREGSAGGSAGGSAGGS [r10_863_TrMRF]”, the “folding stability dG unfold” value [1] was 0.768 ± 0.088 kcal/mol and the “folding stability dG unfold” value [2] was 0.0842 ± 0.23 kcal/mol.
With “SAGGSAGGMTIKELLKEGVPFKIEMYGPNNGEPREFKIPPGESIDDILENMPFPPGMQIRIEPKSAGGSAGG [r6_232_TrROS]” the “folding stability dG unfold” value [1] was 0.121 ± 0.31 kcal/mol and the “folding stability dG unfold” value [2] was -0.142 ± 0.42 kcal/mol.
With “SAGGSAGGSGGTIKLPLYPPEGKEYKGTIPKEKLEAAIAKGEPIKVTLKTKGKEVKEYTIPIKSAGGSAGGS [r12_991_JUSTAS]” the “folding stability dG unfold” value [1] was -0.582 ± 0.44 kcal/mol and the “folding stability dG unfold” value [2] was -0.983 ± 0.48 kcal/mol.
With “SADTLTVSDLMHKLMEEERKKNPEPWSPEDMQEWAKTAARKLADKEGIPIKDVEVEPTDGYPSITVKVPSAG [r14_147_TrROS]” the “folding stability dG unfold” value [1] was -0.691 ± 0.73 kcal/mol and the “folding stability dG unfold” value [2] was under -1 kcal/mol.
In the case of “SAGGSAGGSAGGMPVPRRLEIVVEPEYTEEEIEKIKKELIENGNPEIEEVVVVLPPNLESAGGSAGGSAGGS [r10_233_JUSTAS]”, the “folding stability dG unfold” value [1] is reported as 0.285 ± 0.04 kcal/mol and the “folding stability dG unfold” value [2] is reported as -0.385 ± 0.36 kcal/mol.
In the case of “SITISPDKVYTLKNVRVGDYEVDGLVAVAGPDGTVYVPADVRPVVVPPPAPPVGLDPVDGGVYDITDPSVSA [r9_603_TrMRF]”, the “folding stability dG unfold” value [1] is reported as -0.965 ± 0.61 kcal/mol and the “folding stability dG unfold” value [2] is reported as under -1 kcal/mol.
In the case of “SGMVTLEDIAAAPPGTPVVVTTKKQGSKNLTFIDAVVDGARSSASYPSIEEARKELEAVGYPVEFVDPAESA [r9_1021_JUSTAS]”, the “folding stability dG unfold” value [1] is reported as 0.143 ± 0.066 kcal/mol and the “folding stability dG unfold” value [2] is reported as -0.429 ± 0.19 kcal/mol.
